experiment: soluble fraction after stress (log2 fold change); higher = more stays soluble; pooled small domains, quantitative proteomics; conditions: stress: 75 degC
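Also: 20 min heating vs room temperature control held 20 min.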

Sequence	soluble fraction (log2)
HMTQEQKQQISDQLRAYVEQKGSGNKAAASMNGVSSATISKVLAGKWETISEDMWRSIAAQTGH	0.325
HMTQFSLTTEEINVLKKSYSEFTDSDKELFNKILEKYNKFKNESSNDIAFEAKILEKLQEIENFYE	-0.00344
HMTQMSVLFSELEAKDAATIADKLRERNIPYELSNNGSTILIPQEVLHDTRLSLASEGLPES	0.0765
HMTQPAEINRLVEQMGSSDYKSRQEAYERLHQMGPGILDLIYPYRNHADPEIQTRVRELILSYRW	-0.0738
HMTQQNRDELYRRMIDAGWDQLVRNGIRSLRVEQVAAAVGIAKGTFYHFFDSKDDFIYAMLMENRQ	-3.41
HMTQSPLHWSHRPIDLSELLTYLDRDGAFVYASGHKAPFTEVVRGFEHLLNIRLGDPRDVKRSVLQR	-0.109
HMTQTGEVIRWDAERGFGFIATADGRRHVFFHVRDFRGGAAPGVGLRVGFEEIQVGGKGPRAMDVRPL	-1.28
HMTRDGMTKEAFDSLLEDIMNILLDNGLKATTMGSIAKSLKMSKRTLYEIFSSKSQMVEEAIIASHTKMM	0.214
HMTREAILDTAEELLQRRGYNAFSYHHIAVQLGIRNAAIHYHFPAKEDLGIELVSRFRIRLAE	-0.28
HMTRLSSREAQVISLVRDGMTNQQIAERLELSPLTIKNHVQNILRKLDVSNRAQAVAKAVKARLI	-0.774
HMTRRGPLTEGDRVQVRDPKGRFHQVILVRGGRFQSNRGGFNHDDVIGRPDGQVIITDEGRQFQIL	0.493
HMTRYEQLAAQIRQQIEDNIWQSGDRLPSLRDTVKQSGLSLMTVLQSYQLLESQGWITARPQSGYYVAHR	0.284
HMTSGTLTLTQDTPVYTEPNKDGGVAYVQPQGDIQWDKYIFANGDNWYSFVQKNRDQEVRFYIAYSDVG	-0.561
HMTSHSFVITEEVGQRLDRFISDQLDTVSRTMIQKHIRSGAVVVNGKQVKSNYLLVLNDRINIALK	-2.75
HMTSISMDEKVVLGWHQVTTGAANSGMDKVVSNTSGLNVISPTWFKLSDNKGNYISIASKDYVDAAHKKGL	-0.108
HMTSKTLSADGGENTRLDKFLSNHLPEISRTKIQKMINDGLVYVNQNYAKASLVLDGTELISYTIPD	-0.0211
HMTSLTDDELSVVMLVREREISFDEITSETGFDAARLNSVLTMLKIKGIIDETTGKHYRISGGA	-1.01
HMTSLVRTSNLDGFEPLARSIGVDPVMELMRFGIPPDALIRENMFISFIGFIRLLEHTALAG	0.364

Sequence	soluble fraction (log2)
HMTSMYYLNKAVKEGNAKAIRQLLSAGININVRKRETSTPLDFAIKYKQTEIADLLRKHGGKTAEELKAEE	-0.668
HMTSNEKARNAASAERRADIVAAARELYEEQGLSKTSVQDITNRMGVARSLFYHYFPDKEAVTSAVLDDYV	0.0232
HMTSPELIELGERIRKRRQEMNLSQEALAEKAGISINTVSRVEGGQTAMSIEIFRKMIEILETDANGL	-0.586
HMTSRIHDYWTSPGQPGYAKIGWGTAGDFRRAKALIGEKIAANSPEDMRYLNQIIAQWHFDALGYWPGDH	-3
HMTSRLLTPRQRYVFDTAMKEGFYDVPRRITLTELASVLDVAKSTLSAQLHRIESTVHHAYADDIRRRS	-2.55
HMTSSQLNIEELERRMMMHLEQNGFITRSIYTNLTGRLKWKATEDLKIFVEKGLIRKMGRGNQMYYVKVE	-1.74
HMTSSQRDSILEFLKTRKDHPTADVVYMNVRKSFPNISLGTVYRNLTLLSDIGQIAKIRVGDGVDHFDADT	-0.505
HMTSSSGTITADWLNVRSGAGTNFSRLGSIAGGTRLTVISVHGEWYKITASFEGEIRTGYVHSQYVQMDGE	-3.87
HMTSTEQQIEQFIGTLVSLGGSAGNQRLLEALGWQDSIYQRVKQQLIDDGRIRPGRGRGGSVVLAE	-0.576
HMTSVAGIERFLASGAIKGMGAATAKLIVEHFGADTLNMLDMYPERLTEIKGIGPKKATAIIEGYRELS	-0.897
HMTSVMAWRLITPIPQHGIIRSSQVQLQKHAPNSLKFLDVDSSPVGKQVKHGIAAGHWLSKDDFTE	-1.05
HMTTAASIGRLVRDARKQRGLTQHELASLLSTSQSAIHRIESGNQNLSLEMINRIAQALESPLIVPGG	-0.377
HMTTIRQQAEVPLSAAGRRFDQALAEMFPAYSRSRLSGWIKAGAATLDGAPAAPRQLLRGGERVELDVELE	-0.166
HMTTKGGLVRDTVLNEFRDSEFTRREVELVLNGVASERTIRGALSEMVERGELTQVNFGISTRYRLNQ	-0.563
HMTTLEGIEKYLGSGMIRGIGPAYAGRLTKVFGEAVFDVIEQSPERLREVEGIGPKRVSRIVSGWAEQ	-0.31
HMTTLLNHLKGTRLEAGLSQQALARLAGISRQAYSALESGSSNPSTEVALRLARALKTSVDHLFSLPE	-1.09
HMTTQVPYTAKLININGGSVVNFRKEPGMNTTIIRTYPVGTEVTVLETGVNWSKVEIDGVTGYVSSYFL	-2.33

Source: the domain aggregation screens of Martell et al. (2025)
